Earlier results in patent publication EP4748396A1, “PHARMACEUTICAL COMPOSITION CONTAINING ANTI-NECTIN4 ANTIBODY-DRUG CONJUGATE AND ANTI-PD-1 ANTIBODY AND USE THEREOF” (priority 2023, dated 2025).

Details: 2019 FDA announcement

Q: For Enfortumab Vedotin [PADCEV], which skin adverse reactions is on record?
A: Its skin adverse reactions is “may cause severe skin adverse reactions, including Stevens-Johnson syndrome (SJS) and toxic epidermal necrolysis (TEN)”.
